Measured values as given in the DeepSol protein solubility set.

Assay: soluble on expression in E. coli; label from the status in PepcDB or PDB records

| Sequence | soluble on expression in E. coli |
| --- | --- |
| MAFFRNCDPDDPLCIDECRLQKFEYLRWVRLLPSGDEDVLSYCASIGARLGKSEGYVSRRIDAFSMLLELSKVHELQLKMWHLDITRLMVIAQALSGVEKEVIEEIDAPLARFLTPKRDNQKMPGPKVIKKFIVDLLVRVEDAVEEVDSPQELAIDFYDAGNGKTGINAVVDNATASIFRDQLMRLAKAYECDDSSALLLMATQEGKSLTINLYKGDNFGELMTADGYRLSRKSVDLVFPNASRRSLEGVENVETRGYSFTPSMRAYIQARDGVCRFPGCSIRAVNCDIDHVEEYGLGGKTTARNAQCLCRRHHNLKTSKAVDCEISGDASVSWILEDGTKVVTLPEGIFSADRLFGQTFAQRVVDRIRRRKLRMRKNSCDDVPF | not soluble |
| MAFNDCFSLNYPGNPCPGDLIEVFRPGYQHWALYLGDGYVINIAPVDGIPASFTSAKSVFSSKALVKMQLLKDVVGNDTYRINNKYDETYPPLPVEEIIKRSEFVIGQEVAYNLLVNDCEHFVTLLRYGEGVSEQANRAISTVEFVTAAVGVFSFLGLFPKGQRAKYY | not soluble |
| MAFPRTLAILAAAAALVVACSHGGTPTGSSTTSGASPATPVAVPVPRSCAEPAGIPALLSPRDKLAQLLVVGVRDAADAQAVVTNYHVGGILIGSDTDLTIFDGALAEIVAGGGPLPLAVSVDEEGGRVSRLRSLIGGTGPSARELAQTRTVQQVRDLARDRGRQMRKLGITIDFAPVVDVTDAPDDTVIGDRSFGSDPATVTAYAGAYAQGLRDAGVLPVLKHFPGHGRGSGDSHNGGVTTPPLDDLVGDDLVPYRTLVTQAPVGVMVGHLQVPGLTGSEPASLSKAAVNLLRTGTGYGAPPFDGPVFSDDLSGMAAISDRFGVSEAVLRTLQAGADIALWVTTKEVPAVLDRLEQALRAGELPMSAVDRSVVRVATMKGPNPGCGR | not soluble |
| MAGAMIEARGLVKRFVSGRIRRRVVEALKGVSFSVYEGEIYSFLGPNGAGKTTTVRILSTLLDPDGGEARVAGFDVVKERWEVRKRIGVMLSVERGFYWKLTGRENLYYFGRIYGIPQGELKSRIKEVLDLVGLTDLGGADKPFEEMSLGMKARLGLARVLLKDPEVLILDEPTLGLDPASARTIRGVIRSLASEGRTIFITTHNMVEAEMISDRVGIIIGGRIAMEGTPDELKRRVFSSINLEFRVKASGHAAKKFFYDVKGEYGNRIVGGVTFSDGILTFRVSVNRDEPAEPIIDRITRLAYQYRFKILEIKALEPSLEDVFVAVSESGEARSGRVKGSIAQRLEHHHHHH | soluble |
| MAGDCSSHWPVTNPPRGYLSSRRLLEHSTRSIGQTVIHTRDPCDGTGMGVAVIGASMTKFGQRDVWIRELLSQAGEECLTDAGVAPDDVEHLYVSNMASGEFEGQTGIMNLLAHDLGVLPAYSERVDQTSSSGGAGIYEAWQSVASGASEMTLLVGGEKMTHKTTGQATDIIASITHPDEYKHGVTLPSFAGMTARHYLERFDAPRESLARVAVKNHRNGVDNPKAQFQKEITMEKALESPIIADPLRLYDFCPITDGSAALMFTTEERAKEITDEYALVSGIGGATDTHVVHERDDPTIMGGVVESSKQAYEMAGLGPNDLDVAELHDMFTILEFLQLEGIGVADQGTAWEMAMDGVTAKDGELPINTSGGLKSKGHPLGASGVAQGVEIYEQLVGEAGPRQVEADTALACNVGGFGNCVITTIMEAAE | not soluble |
| MAGDPMIEVIGVRFKKAGKIYYFGPNGIEIKKGQNVIVETARGIEFGECVIGIRKISEEDIVAPLKSVLRLATEEDINKHKENKAKETEAFEICLKKIEEHNLVMKLIDVEYTFDNNKVIFYFTAEGRVDFRELVKDLATIFKTRIELRQIGVRDEAKMIGGLGPCGRPLCCSTFLGDFASVSIKMAKEQSLSLNPTKISGICGRLMCCLNYEQSTYEEIRKELPRVGSVVETELGKGEVVGNNVLKELVRVKLPRKNEEIIQDFKMYDVKLISGSYEGEVEDTNIRLEITDEADKALIKNLIKDNLEHHHHHH | soluble |
| MAGDPMKIMIFICGEGLGHTSRCLALGKELLAAGHEIEFGAYGYSRDLVEKTGYRIHEIPSEIKLVGKAGGFDLSGSIEATLKNARILGGPKVLKLIKDFKPDVVVSDSYYLGTLAAMLLNIPVYLIINQSNMEDFFKNRGVPIRLLGDLTKKFYREVFEKTDKIIIPDYPLPYTVCRKNLNFSPGLWEKLEHHHHHH | not soluble |
| MAGDPMKNKSLLLAVAISATLLAGCKNGVNGNLIASSGMSTYKAATLSDADVKALSNNACKQMDSENQLAGSKSKYTKRLSKIAKALGNNIDGTPVSYKVYMTSDINAWAMANGCVRVYSGLMDLMTDNEIEGVLGHELGHVSLGHSRKAMQTAYATLAARDAISATSGVAAQLSQSQLGDLAEGVINSAFSRSQESDADDFSYDLLKKRGINTQGLVTAFDKFATMDAGHAKSLMDSHPASADRAQHMRDRIAEDKKLEHHHHHH | soluble |
| MAGDPMSLPGLSAAADQTIKIGAQSMSESEIIASMLGQLIEHHTDLKTTTIKNLGSNAVQQQALMNGEIDIAATRYTGDALTGTLRMEPEKDPDKALALTQREFKKRYDLKWYDSYGFDNTYAFTVSKELADQYHLETVSDVKKWAPQLKLGVDNYWMKLKGNGYQDFTKTYGMTFGGTYPMQIGLVYDAVKSGKMDIVLAYSTDGRIKSYGLKMLKDDKQFFPPYDCSPVVPEKVLKEHPELEGIIKKMLGKIDTATMQELNYEVDGNLKEPSVVAKEYLEKHRYFESLEHHHHHH | soluble |
| MAGDPMTMRVCYRCGISEEEGGPLINGLCQVCFRKENPVLLLPSEINTELCQNCGSYKKRGVWIDPQNYELESLIFEVAENALLEALEESLDKVKEFEVVPWEELENINNIPVGKAFVGFIPVDYHIQYFPAVIVYRVRVKARLHELQLEPHDEIKETTVYVRQTVCPRCQRFLAGYYEAILQVRVEDREFTKEEREAVTKLVQEKVDEIMKKDRMGFIQDTIEKEEGIDFYMGSTSAARKLANVIREHFGGEISEAYELVGLDRMTSKEVYRTSVTVRLPKFRRGDIVEDRHGRIYKVENVSGKGMRLKNLETWESQHYDWKTIKREKIDKAEHEEKKALLISQTPREAQFMDMSTYETFEVLKPGVNLEEGQLYRLVKVKGRFYIKEKEGEELEHHHHHH | not soluble |
| MAGDPMTSLTYLQGYPEHLLAQVRALIAEQRLGAVLEKRYPGAHDYATDKALYHYTQELKSQFLRNAPPINKVMYDSKIHVLKNALGLHTAVSRVQGGKLKAKAEIRVATVFRNAPEPFLRMIVVHELAHLKEKDHNKAFYQLCCHMEPQYHQLEFDTRLWLTHQALSAQLEHHHHHH | not soluble |
| MAGDPMYKIGIDVGGTNTDAVILDHQLNLIHSVKVPTTDDIQTGIAGALNKVLAESAVDPTKVTHAMLGTTQCTNAIVERKKLAKVGVLRLGYPATASVLPYTAWPKDLVATLSETYALAHGGYEYDGQPLTALDEEELRGILASWRGEVEAIAVIGVFSSLKNDQELFVQALAKEVLGADVPVSCSSMIGSVGLIERENATILNAALHKVIKVTSEGFEQALEQEKIHHAQVYLCQNDGTLMSLTYAKQFPILTIACGPTNSIRGASYLAGLKDAVVLDVGGTTSDIGVLVDGFPRESSLAVDVGGVRTNFRMPDIVSIGVGGGSLVREQPDGSVTVGPDSVGYRITQEALVFGGTQLTTTDIAVRLGHAQVGDPSKVAHLDQAFAEKVYQKIGELVSEAIDRMKTSSADVTVVLVGGGSIIIPEELTGVKALIRNKNGAVANAIGASIAQISGQYEQIYVYSKIQRDAALTDAQEKAVQQAELAGAVPGTIELVEVEETPLAYHPENATRLRVKVVGNMYLEHHHHHH | soluble |
| MAGEKAQKKGKEKWKEKTWYTVESPPYLGSKEVTVALGEDPESMVNRIVEVPISDLTGNFKKSNEKALFRITGCEGTKCKTIFIGHYIGDDYIRRLVRRRKERIDIIEDVKTSDGSIITVKIVVVSDGKLTNTKKSEIRKALTSFIVSKGSQLSYADFVRYLIGDDSYNDMVEATKNIYPLRKIEIRKSELVSLSGMQEPQKNEPAPGGEAIAQNLEHHHHHH | soluble |
| MAGGFGVGKTTFVGAVSEIAPLSTEELLTTVGAATDNLDGIENKVETTVAMDFGRITLDPEHVLYLFGTPGQQRFWFMWDELSEGALGAVILADTRRLEDCFAAVDFFEQRGLAFIVAINDFDGGYRYDPAEVRAAIDLDPHIPVVRCDARISSSGVQTLLTLVRHLLAHAPATAPSHGAHTLEHHHHHH | not soluble |
| MAHHHHHHMADYNAAGADTAVVDDNVPPGITTKQDEIIQYVAKYVVASCDGARYQDKVRTRTKHNPYFDFLNAKHPYHQYYQYLLESYRHWMRNSEAVGAGTWGGGVDATQGQGQQQQWNEEDYYQYYGAYAGQASGIEFQGNAAGQLGEGSSYVDASSSAHARNASSGVDPTSYESEAVTATGYGAGYDPSAVDPEPAQVATTAGGGEAQAEEDEDDEYELVMENGQWVSRKRM | soluble |
| MAHHHHHHMAEAKVVKDLAEVCASGAETYSAWTTAKALVQRRYLSAKAQGTFEDCGKLLASLTRVLQTYLRIDLAQELLSDVLFQVMEHFSAKQAAGATAAVVKDGGAPQSSFDLAAANFLQHMFDTLLSATTRTYTLMGPMPLVVEWNRDADSGGVEAAVAQSKHAAPWAEAVVLEFAVRAADFLSQRPQSADVLSHWAQNLFVSYEQLLALRLALPSSPPSTPQDGKAASAAAPSPSVPVPTLASQLLRMSTFNRASRTGKESSDSTSAATTPLTAAVYWLTHFAREPNAVNHLFAQYVYFDILGRGQQRSSTANTTPGNSGAPAKMLRERVNAALEERCTLTRREAISMARAAVEAYWQAFPLVLQQTSSVSSPQPSSCAGESSKEDANVDPQDVHLYRWTWFLDSLTLTFAYSGSASASIDEDAAVQQRERQKHVCAQLLELYADVTAELPGLKWQELVAAYIGA | soluble |
| MAHHHHHHMALQENRDSYKVKALSLSEFVQQCSDCHQLCLEKTVRVLDNRSRAPRGWEALFNSVAEERRSEDLDLCESRCRYMQTTCPSQDKVQQYEQALAAASLKLKKSTPPNPSVLQDASRCEHAVEVFSNVLFALAHKPSKVSFPTKDLKTGGNTDAESHAGAPTEAHRKVLEGAKNMDNDVSCRSSKLRHERFGSKAQDVASSTGSSLAPDTAAASPASSGTTPKW | not soluble |
| MAHHHHHHMANIITLKSAWDVDRHIVLDSADKLVLIRFSSYTSAAVEAEEYSRQVKRGTATSTSTVAEGSSNSSSSALPTRKRRHDDADGNSACAVTSAATAALLSANVDEHYLRTRQMDALLSELAPKVRKYCTIYFVDTREVTAFNELYELGHDRDPFAVMFFYRNRHIRVDVGTGNNNKINFFAFEDLYDFLPIVDAAYKAGRQGRSIASCDRKFSTVALRR | soluble |
| MAHHHHHHMAPGVIPTVFRSERDREWAAQRFNYKKGSDDEERVARKRLLFARDRVHLPDDTVVETIRSPTEQLEELRALREHPPMHLLSEQLNSIAEESHRYAAALAAAAAAQPADPKDVASPASLRSDAAATSSLDGVALPPLPGAAAVVSSPPQVEIQFEDRSLFATAAILFRDRDDRVVRAMRFIGACGMVWKEVA | soluble |
| MAHHHHHHMAVLIKNNEASLVDMAVQDFIKLGIDGVYTTMKTVVSFEYIFNFTSHMRNLHKYSTNFLELQINGHNKECVTNILQNLTLENIRKSTSTSIKAGFEFINTLNDDIKKKYFSENLNYMVMVTITWDIHTDNRIPSNEPFSILCYIKCLPKHSNNVQIDIMCGERKTPNIKYSNVFDVRNKMLKLKSEDSHEVVLYNEKEEITEGLTCNFFCFFNDTLYTAKDELVLKGTMREQIIQICEEVGITLKRKVST | not soluble |
| MAHHHHHHMCVHTFVRMNAWMCSSLSITQQNTITPPHYMQNSAFRVASLLQSRHRRGICDEGESTLAKLTQGVEMFLQHAADVPPVMLEKLSEVGDADTSTNGCSERHDDVDESMDEAEVHLSVVAGVLEPREMPKNVSTMSGLLLPTADNRKALERQKVEEAQAMLNLLAALTANNKKENTIGALTGTSEAEVDDESTTTSDESVVICYADELESDTTSSCSEADAQQEPQRSARIIELN | not soluble |
